According to patent publication US11292821B2, “Peptides and combination of peptides for use in immunotherapy against lung cancer, including NSCLC, SCLC and other cancers” (Immatics Biotechnologies GmbH, priority 2017, dated 2022):

Tests used:
[1] = system: HLA-A*24; assay: MHC binding assay (UV-ligand exchange, β2m ELISA); set-up: species or system human
[2] = system: CD8+ T cells; assay: In vitro T-cell priming assay with aAPCs (in vitro immunogenicity for MHC class I presented peptides); assay type: cell-based, human; conditions: in vitro immunogenicity, HLA A*24
[3] = target: HLA-B*07 (Homo sapiens, UniProt P01889); assay: MHC binding assay (UV-ligand exchange, β2m ELISA)
From the text: Candidate peptides for T cell based therapies according to the present invention were further tested for their MHC binding capacity (affinity). The individual peptide-MHC complexes were produced by UV-ligand exchange, where a UV-sensitive peptide is cleaved upon UV-irradiation, and exchanged with the peptide of interest as analyzed. Only peptide candidates that can effectively bind and stabilize the peptide-receptive MHC molecules prevent dissociation of the MHC complexes. To determine the yield of the exchange reaction, an ELISA was performed based on the detection of the light chain (β2m) of stabilized MHC complexes. The assay was performed as generally described in Rodenko et al. (Rodenko et al., 2006).
96 well MAXISorp plates (NUNC) were coated over night with 2 ug/ml streptavidin in PBS at room temperature, washed 4× and blocked for 1 h at 37° C. in 2% BSA containing blocking buffer. […] Peptide-MHC monomers of the UV-exchange reaction were diluted 100-fold in blocking buffer. Samples were incubated for 1 h at 37° C., washed four times, incubated with 2 ug/ml HRP conjugated anti-β2m for 1h at 37° C., washed again and detected with TMB solution that is stopped with […]. Absorption was measured at 450 nm. Candidate peptides that show a high exchange yield (preferably higher than 50%, most preferred higher than 75%) are generally preferred for a generation and production of antibodies or fragments thereof, and/or T cell receptors or fragments thereof, as they show sufficient avidity to the MHC molecules and prevent dissociation of the MHC complexes.

Row | Substance | Peptide exchange (peptide exchange yield, MHC class I binding score) [1] | Wells positive [%] [2] | Peptide exchange (peptide exchange yield, MHC class I binding score) [3]
1 | 61 (NYAENILTL; listed as Homo sapiens) [compound 61] | “+++” (>50 = +++) | “++” (20%-49% = ++) | 
2 | 62 (LYQEILAQL; listed as Homo sapiens) [compound 62] | “++++” (>75% = ++++) | “+” (<20% = +) | 
3 | 65 (VYPASKMFPFI; listed as Homo sapiens) [compound 65] | “++++” (>75% = ++++) | “+” (<20% = +) | 
4 | 66 (IYFRDSSFL; listed as Homo sapiens) [compound 66] | “++++” (>75% = ++++) | “++” (20%-49% = ++) | 
5 | 72 (RYEGILYTI; listed as Homo sapiens) [compound 72] | “++++” (>75% = ++++) | “+” (<20% = +) | 
6 | 76 (WYGWHFPEL; listed as Homo sapiens) [compound 76] | “+++” (>50 = +++) | “+” (<20% = +) | 
7 | 79 (RYLADLPTL; listed as Homo sapiens) [compound 79] | “++++” (>75% = ++++) | “+” (<20% = +) | 
8 | 83 (TYCQNIKEF; listed as Homo sapiens) [compound 83] | “++++” (>75% = ++++) | “+” (<20% = +) | 
9 | 227 (YPRGNHWAVGH; listed as Homo sapiens) [compound 227] |  |  | “++++” (>75% = ++++)
10 | 229 (VPLPAGGGTV; listed as Homo sapiens) [compound 229] |  |  | “+++” (>50 = +++)
11 | 230 (VPLPAGGGTVL; listed as Homo sapiens) [compound 230] |  |  | “+++” (>50 = +++)
12 | 234 (RAKNAGVTI; listed as Homo sapiens) [compound 234] |  |  | “++++” (>75% = ++++)
13 | 235 (MPLKHYLLL; listed as Homo sapiens) [compound 235] |  |  | “++++” (>75% = ++++)
14 | 236 (RVRGGEDGDRAL; listed as Homo sapiens) [compound 236] |  |  | “++++” (>75% = ++++)
15 | 238 (KPGPPWAAF; listed as Homo sapiens) [compound 238] |  |  | “++++” (>75% = ++++)
16 | 239 (YVPSASLFML; listed as Homo sapiens) [compound 239] |  |  | “++++” (>75% = ++++)
17 | 240 (SPREVTTVL; listed as Homo sapiens) [compound 240] |  |  | “++++” (>75% = ++++)
18 | 243 (RPIENRILIL; listed as Homo sapiens) [compound 243] |  |  | “++++” (>75% = ++++)
19 | 246 (TPLPAVIVL; listed as Homo sapiens) [compound 246] |  |  | “++++” (>75% = ++++)
20 | 247 (RALLARLLL; listed as Homo sapiens) [compound 247] |  |  | “+++” (>50 = +++)
21 | 251 (VPRSSGQTV; listed as Homo sapiens) [compound 251] |  |  | “++++” (>75% = ++++)
22 | 253 (RVIDAVRFTL; listed as Homo sapiens) [compound 253] |  |  | “+++” (>50 = +++)
23 | 254 (NPFPHLITL; listed as Homo sapiens) [compound 254] |  |  | “++++” (>75% = ++++)

Row | Substance | Peptide exchange (peptide exchange yield, MHC class I binding score) [1] | Wells positive [%] [2] | Peptide exchange (peptide exchange yield, MHC class I binding score) [3]
24 | 255 (MPLLENLYL; listed as Homo sapiens) [compound 255] |  |  | “++++” (>75% = ++++)
25 | 256 (SPRVPSIEL; listed as Homo sapiens) [compound 256] |  |  | “++++” (>75% = ++++)
26 | 257 (LPRIPFADV; listed as Homo sapiens) [compound 257] |  |  | “++++” (>75% = ++++)
27 | 258 (LPRGPLASL; listed as Homo sapiens) [compound 258] |  |  | “++++” (>75% = ++++)
28 | 259 (RPPAAGLRGISL; listed as Homo sapiens) [compound 259] |  |  | “++++” (>75% = ++++)
29 | 260 (YPQHPGLNA; listed as Homo sapiens) [compound 260] |  |  | “+++” (>50 = +++)
30 | 261 (APSARVGVC; listed as Homo sapiens) [compound 261] |  |  | “+++” (>50 = +++)
31 | 262 (SAYPQRLEI; listed as Homo sapiens) [compound 262] |  |  | “+” (>10% = +)
32 | 263 (HPAPYGDLL; listed as Homo sapiens) [compound 263] |  |  | “++++” (>75% = ++++)
33 | 265 (SPRQPPRLV; listed as Homo sapiens) [compound 265] |  |  | “++++” (>75% = ++++)
34 | 267 (HPELVNHIVF; listed as Homo sapiens) [compound 267] |  |  | “++” (>20% = ++)
35 | 268 (YPLFRGINL; listed as Homo sapiens) [compound 268] |  |  | “++++” (>75% = ++++)
36 | 269 (APRAPRLML; listed as Homo sapiens) [compound 269] |  |  | “++++” (>75% = ++++)
37 | 270 (APGPRFLVT; listed as Homo sapiens) [compound 270] |  |  | “++++” (>75% = ++++)
38 | 271 (MPLPWSLALP; listed as Homo sapiens) [compound 271] |  |  | “+++” (>50 = +++)
39 | 272 (MPLPWSLALPL; listed as Homo sapiens) [compound 272] |  |  | “++++” (>75% = ++++)
40 | 273 (MPLLWLRGF; listed as Homo sapiens) [compound 273] |  |  | “++” (>20% = ++)
41 | 375 (VYSDLHAFYY; listed as Homo sapiens) [compound 375] | “++++” (>75% = ++++) | “+” (<20% = +) | 
42 | 379 (NYIVPDKQIF; listed as Homo sapiens) [compound 379] | “+++” (>50 = +++) | “+” (<20% = +) | 
43 | 380 (VFQEKHHVI; listed as Homo sapiens) [compound 380] | “+++” (>50 = +++) | “+” (<20% = +) | 
44 | 383 (RYKQDVERF; listed as Homo sapiens) [compound 383] | “+++” (>50 = +++) | “+++” (50%-69% = +++) | 
45 | 384 (KYVKVFDKF; listed as Homo sapiens) [compound 384] | “++++” (>75% = ++++) | “+++” (50%-69% = +++) | 
46 | 386 (VYNDHSIYVW; listed as Homo sapiens) [compound 386] | “++++” (>75% = ++++) | “++” (20%-49% = ++) | 
